Earlier results on one substance are cited in publication PMC2939181.

pKd: −log10 of the molar value.

For this data set, the target named is CPT-1 (UniProt P50416). In words: FRET.
Chain of UniProt P50416 (P50416 2-773): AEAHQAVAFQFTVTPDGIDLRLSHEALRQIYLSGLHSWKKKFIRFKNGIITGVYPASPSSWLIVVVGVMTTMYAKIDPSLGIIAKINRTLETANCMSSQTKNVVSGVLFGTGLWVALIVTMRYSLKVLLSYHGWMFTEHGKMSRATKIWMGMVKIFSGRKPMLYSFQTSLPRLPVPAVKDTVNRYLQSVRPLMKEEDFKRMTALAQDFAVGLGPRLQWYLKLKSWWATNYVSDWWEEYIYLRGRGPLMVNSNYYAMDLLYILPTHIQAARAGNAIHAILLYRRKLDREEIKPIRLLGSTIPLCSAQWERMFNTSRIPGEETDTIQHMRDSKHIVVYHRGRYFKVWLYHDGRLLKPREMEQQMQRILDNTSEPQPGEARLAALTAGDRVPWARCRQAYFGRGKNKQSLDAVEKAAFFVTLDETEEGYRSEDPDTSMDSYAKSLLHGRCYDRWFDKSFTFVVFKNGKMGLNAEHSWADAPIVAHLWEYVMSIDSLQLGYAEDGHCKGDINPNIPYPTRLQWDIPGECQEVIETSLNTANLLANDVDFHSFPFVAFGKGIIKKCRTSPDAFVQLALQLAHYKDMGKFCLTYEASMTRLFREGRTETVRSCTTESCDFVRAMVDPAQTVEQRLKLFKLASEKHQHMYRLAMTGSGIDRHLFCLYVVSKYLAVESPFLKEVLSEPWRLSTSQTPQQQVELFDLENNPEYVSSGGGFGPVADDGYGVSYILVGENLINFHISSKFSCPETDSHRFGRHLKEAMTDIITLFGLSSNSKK

Regarding L-FABP (from UniProt P07148), the pKd (in general, the Kd on a negative log10 scale, so that one unit is a factor of ten) was 8.68.
